From patent US20190248902A1 (published 2019)
Where a chain is given by its changes, count along the chain named.

T1: human ASGR-1 (wild type) (human, UniProt P07306 1-291)
T1 construct: also called wt ASGR1; huASGR-1
T1 sequence: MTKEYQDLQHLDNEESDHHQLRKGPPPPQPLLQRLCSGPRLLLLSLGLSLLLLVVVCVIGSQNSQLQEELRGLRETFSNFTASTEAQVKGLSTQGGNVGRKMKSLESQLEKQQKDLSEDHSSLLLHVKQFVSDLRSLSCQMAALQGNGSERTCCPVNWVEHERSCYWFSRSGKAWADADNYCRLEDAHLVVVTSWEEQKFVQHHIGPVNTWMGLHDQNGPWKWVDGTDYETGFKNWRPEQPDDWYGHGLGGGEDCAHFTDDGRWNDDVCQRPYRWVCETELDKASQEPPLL

T2: human ASGR-1 mutant construct H203 (human, UniProt P07306 1-291)
T2 construct: Arg/Glu scanning: non-arginine residues were changed to arginine; Transiently expressed on CHO-S cells
T2 sequence: T1 sequence with H203R

T3: soluble human ASGR-1 carbohydrate binding domain (CBD; amino acid residues 154-281; N-terminal 6xHis tag) (human, UniProt P07306 154-281)
T3 construct: also called ASGR-1 CBD
T3 sequence: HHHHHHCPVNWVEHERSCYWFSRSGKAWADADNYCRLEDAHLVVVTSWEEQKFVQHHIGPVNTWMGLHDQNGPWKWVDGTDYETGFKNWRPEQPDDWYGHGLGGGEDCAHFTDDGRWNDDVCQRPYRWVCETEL

B1: 202A3 (antibody, V domains shown)
VH: QVQLEQSGAEVKKPGASVKVSCKASGYTFTSYDINWVRQATGQGLEWLGWMNPKRGNTGYAQKFQGRVTMTRNTSISTAHMELSSLRSEDTAVYYCARGRYSREDYYYYYDMDVWGQGTTVTVSS
VL: DIQMSQSPSSLSASVGDRVTITCRASQGIRNDLGWYQQKPGKAPKRLICAASRLQSGVPSRFSGSGSGTEFTLTISSLQPEDFAIYYCLQHHDYPFTFGPGTKVDIK
notes: mAb
B2: 7F4 (antibody, V domains shown)
VH: QLQLQESGPGLVKPSETLSLTCTVSGGSISRSSYYWGWIRQPPGKGLEWIGNIYYSGATYYNPSLKSRVTISVDTSTNQFSLKLSSVTAADTAVYYCARHSGSWSLDYWGQGTLVTVSS
VL: B1 VL with S5T, A25T, C49Y, R53N, I85T, H92S, D93A, F96L, P100G, D105E
notes: mAb
B3: 54E9 (antibody, V domains shown)
VH: QVQLVQSGAEVKKPGASVKVSCKASGYTFNSYGISWVRLAPGQGLEWMGWISAYNGNTKNAQKLQGRVTMTTDTSTSTAYMELRSLRSDDTAVYYCARHDFWSGYYKGMDVWGQGTTVTVSS
VL: not shown
notes: mAb
B4: 4H6 (antibody, V domains shown)
VH: QVQLVQSGAEVKKPGASVKVSCKASGYTFTDYYLHWVRQAPGQGLEWMGWIHPNSGGTNYAQKFQGRVTMTRDTSISTAYMGLSSLRSDDTAVYYCARDGTSSFDYWGQGTLVTVSS
VL: DIQMTQSPSSVSASVGDRVTITCRASQGISRWLAWYQQKPGKAPKLLIYGASSLQSGVPSRFSGSGSGTDFTLTISSLQPEDFAIYYCQQANSFPFTFGPGTKVDIK
notes: mAb

How the values were obtained:
human ASGR-1 (wild type) [1] = biological target: T1, human ASGR-1 (wild type); assay: FACS, transfected CHO-S cells, mAb 5 ug/ml
In short: (§1)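 Transiently transfected CHO-S cells expressing wild-type or mutant hASGR-1 incubated with antibody at 5 ug/ml, 1 h at 4 °C; bound antibody detected by Alexa Fluor 647 anti-Fc plus 7-AAD, by flow cytometry. Binding normalized to expression using an unaffected antibody (65C12), then to wild type; hits defined as >3× IQR above third quartile.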

[2] = biological target: T2, human ASGR-1 mutant construct H203; assay: FACS, transfected CHO-S cells, mAb 5 ug/ml
In short: as §1

[3] = biological target: T2, human ASGR-1 mutant construct H203; assay: FACS ratio: H203 normalized value / wt normalized value
In short: as §1

human ASGR-1 (wild type) [4] = biological target: T1, human ASGR-1 (wild type); assay: FACS ratio: 65C12 geomean / this mAb geomean
In short: (§2)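 Value is the geomean of reference antibody 65C12 divided by that of the test mAb, correcting for construct expression. Binding was measured by flow cytometry on transiently transfected CHO-S cells after 1 h at 4 °C with antibody at 5 ug/ml. Detection used an anti-Fc Alexa 647 secondary, with 7-AAD to exclude dead cells.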

[5] = biological target: T2, human ASGR-1 mutant construct H203; assay: FACS ratio: 65C12 geomean / this mAb geomean
In short: as §2

human ASGR-1 (wild type) [6] = biological target: T1, human ASGR-1 (wild type); assay: flow cytometry, CHO-S:huASGR-1 cells, 11-point titration
Description: CHO—S stable high-expressing cell line were developed for both human ASGR-1 as well as mouse ASGR-1. A typical 384 well plate multiplex flow cytometery-based cell binding method is described as followed: Parental CHO—S cells and CHO—S:huASGR-1 cells were respectively labeled using a CellTrace CFSE Cell Proliferation Kit (ThermoFisher Catalog #C34554) and CellTrace Violet Cell Proliferation Kit (ThermoFisher Catalog#C34557) CHO—S:muASGR-1 were not labeled. 20 ul of cells at 4C were added to duplicate wells of the 384 well plate. The cells were equally mixed from all three cell lines (30K cells/well). Then 20 ul of the ASGR-1 antibodies (either purified from hybridoma supernatants or made recombinantly) were added in an 11-point dose response using a 1:2 fold serial dilution starting at 100 nM. The cells and antibodies were incubated for 30 min at 4C and then spun down and washed twice with FACS buffer containing 1 mM CaCl2. 30 ul of anti-hulgG-APC secondary antibodies were then added at a 1:1000 dilution) for 30 min at 4C and then washed once with the same buffer. 60 ul of PI (1:1000) was added and then the cells were read by a core flow cytometry facility. The cells were gated first for live cells, then for single cells and finally for the cell dyes to separate the mixed cells into the three different cell populations. Histograms of signal vs count representing the binding profile of each antibody at each antibody concentration were automatically analyzed for the median of the binding signal and then a binding graph was made with log 10 antibody concentration in nM on the X axis with […] from the duplicate wells on the Y-axis. The binding curves were fit with a standard four parameter sigmoidal binding curve and EC50's reported for all graphs with full curves.

[7] = biological target: T3, soluble human ASGR-1 carbohydrate …; assay: Octet BLI, mAb on AR2G tips, 1:1 fit
Excerpt: To quantitate the binding affinity of specific antibodies for ASGR-1 (either purified from hybridoma supernatants or made recombinantly), association and dissociation rates can be measured using a ForteBio Octet instrument. […] Experimental kinetic results were globally fit to a 1:1 binding model in order to determine the association and dissociation rate constants as well as the equilibrium dissociation constant. Association and dissociation times were chosen to ensure that curvature was present during association curves and measured dissociation levels dropped at least 5% from starting levels. All Octet buffers contained 10 mM Tris (pH7.5), 150 mM NaCl, 1 mM CaCl₂), 0.10 mg/ml BSA and 0.13% Triton X-100. Octet assays were run at 27° C. Because this assay only measures binding to the ASGR-1 CBD, antibodies that recognize epitopes partially or entirely outside the CBD and/or recognize ASGR-1 in the context of a native ASGR complex, for example, as could occur on cell membranes, may not score as positive in this assay.

Row | Binder | FACS Binding Geomean (human ASGR-1 (wild type) [1]) | FACS Binding Geomean [2] | Normalization to wt ASGR1 Binding [3] | Expression Normalization to mAb 65C12 (human ASGR-1 (wild type) [4]) | Expression Normalization to mAb 65C12 [5] | EC50 (human ASGR-1 (wild type) [6]) [nM] | Kd [7] [nM]
1 | B1 | 24800 | 12500 | 0.913 | 2.26 | 2.06 | 0.8 | –
2 | B2 | – | – | – | – | – | 5.4 | 1.2
3 | B3 | 38600 | 15300 | 1.16 | 1.45 | 1.68 | 5 | –
4 | B4 | – | – | – | – | – | 1.7 | 4.8
